# Tests used:
# [1] = target: full-length human Presenilin-1 (human) (UniProt P49768); assay: cell-based or functional assay
# [2] = target: full-length human Presenilin-2 (human) (UniProt P49810); assay: ^35S-GTPγS incorporation in extracts of co-transfected ES cells, immunoprecipitation with anti-PS MAb, scintillation counting
# [3] = target: full-length human Presenilin-1 (human) (UniProt P49768); assay: ^35S-GTPγS incorporation in extracts of co-transfected ES cells, immunoprecipitation with anti-PS-1 loop MAb, scintillation counting
# [4] = target: full-length human Presenilin-1 (human) (UniProt P49768); assay: [^35S]-GTPγS labelling of extracts of co-transfected ES cells, immunoprecipitation with anti-PS-1
# [5] = target: endogenous rat PS proteins in rat hippocampal membranes; assay: cell-based or functional assay
# human G-protein GαoA, sequence (P09471 2-354): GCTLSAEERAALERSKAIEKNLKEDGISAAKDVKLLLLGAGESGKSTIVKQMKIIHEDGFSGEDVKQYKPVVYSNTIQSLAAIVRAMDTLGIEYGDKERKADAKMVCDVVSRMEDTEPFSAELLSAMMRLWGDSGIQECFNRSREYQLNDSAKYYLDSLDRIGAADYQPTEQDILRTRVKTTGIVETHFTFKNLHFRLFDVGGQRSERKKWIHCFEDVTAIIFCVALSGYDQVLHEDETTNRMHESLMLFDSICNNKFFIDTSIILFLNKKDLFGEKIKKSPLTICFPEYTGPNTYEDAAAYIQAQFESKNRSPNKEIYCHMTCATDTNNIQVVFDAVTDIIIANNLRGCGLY
# soluble ectodomain of human β-APP, baculovirus-derived, sequence (P05067 18-701): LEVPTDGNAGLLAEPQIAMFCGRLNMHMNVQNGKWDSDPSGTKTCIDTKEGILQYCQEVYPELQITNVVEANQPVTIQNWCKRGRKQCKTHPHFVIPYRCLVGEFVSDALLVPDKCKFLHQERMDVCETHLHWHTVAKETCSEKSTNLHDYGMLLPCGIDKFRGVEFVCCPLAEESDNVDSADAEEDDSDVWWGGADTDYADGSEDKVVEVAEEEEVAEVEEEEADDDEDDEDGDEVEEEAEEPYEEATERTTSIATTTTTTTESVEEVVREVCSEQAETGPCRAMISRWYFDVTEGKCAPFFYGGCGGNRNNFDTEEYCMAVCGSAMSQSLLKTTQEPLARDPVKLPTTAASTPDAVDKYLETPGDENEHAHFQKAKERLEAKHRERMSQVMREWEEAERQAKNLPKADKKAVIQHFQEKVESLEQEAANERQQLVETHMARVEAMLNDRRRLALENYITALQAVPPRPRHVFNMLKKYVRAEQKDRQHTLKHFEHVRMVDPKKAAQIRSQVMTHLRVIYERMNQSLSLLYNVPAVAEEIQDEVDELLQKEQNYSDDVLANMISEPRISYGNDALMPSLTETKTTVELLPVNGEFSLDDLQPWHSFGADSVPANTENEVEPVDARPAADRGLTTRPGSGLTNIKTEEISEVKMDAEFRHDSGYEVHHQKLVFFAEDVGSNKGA
substance,measurement,setting,value
full-length human β-amyloid precursor protein (from UniProt P05067 18-770) (ligand),"^35S-GTPγS incorporation (Gαo immunoprecipitated with K-20), high density co-culture (% increase over basal)",[1],200
same,"^35S-GTPγS incorporation (Gαo immunoprecipitated with K-20), high density co-culture with PTx (% lower than basal)",[1],38
same,"^35S-GTPγS incorporation (Gαo immunoprecipitated with K-20), low density co-culture (% increase over basal)",[1],33
human G-protein GαoA (from UniProt P09471 2-354),% increase in ^35S-GTPγS binding over untransfected control,[2],700%
same,"^35S-GTPγS incorporation, % of untransfected control",[3],700%
same,fold increase in ^35S-incorporation immunoprecipitated with antibody to PS-1,[4],8 fold
"soluble ectodomain of human β-APP, baculovirus-derived (from UniProt P05067 18-701) (ligand)",^35S-GTPγS incorporation (Gαo) in PS-1-only APP-/- fibroblasts,[1],500 % increase
same,^35S-GTPγS incorporation in solubilized rat hippocampal membranes,[5],600 % increase
same,^35S-GTPγS incorporation in solubilized rat hippocampal membranes (% greater than untreated),[5],100

# From patent publication US20090305946A1
